What was measured:
[1] = tested on: EGFR T790M mutated non-small cell lung cancer cell line (H1975); details: FIGS. 17 to 19; for cell proliferation, co-treatment with bispecific antibody compared to c-Src inhibitor alone: c-Src inhibitor 10, 100, 1000 nM + 5 μg/ml ME22S, HGF and EGF 100 ng/ml, 72 hours; for dose dependence of the synergistic effect by co-treatment with bispecific antibody: c-Src inhibitor concentration varied, ME22S 5 μg/ml
Method: (§1) The cells were stored in RPMI1640 medium (GIBCO) containing 10%(v/v) FBS under the conditions of 5% CO2 and 37° C., until being used in the following experiments. A cell proliferation assay was performed as follows.
(§2) In detail, RPMI1640 medium (GIBCO) containing 10% FBS was added to 96-well plate.
(§3) At 72 hours after the treatment, 10 μL of Cell Counting Kit-8 solution (Dojindo Molecular Technologies, Gaithersburg, Md.) was added to each well, and left at room temperature for 2 hours.

[2] = tested on: K-Ras mutated colorectal cancer cell line (Lovo cell line); assay: Cell proliferation assay (Cell Counting Kit-8), Lovo cell line; assay type: cell-based; details: for cell proliferation, co-treatment with ME22S compared to c-Src inhibitor alone: c-Src inhibitor 10, 100, 1000 nM + 5 μg/ml ME22S
[3] = tested on: K-Ras mutated colorectal cancer cell line (HCT-116 cell line); assay: Cell proliferation assay (Cell Counting Kit-8), HCT-116 cell line; assay type: cell-based; details: for cell proliferation, co-treatment with ME22S compared to c-Src inhibitor alone: dasatinib 10-1000 nM or saracatinib 10-10000 nM + 5 μg/ml ME22S
Method: as §1
RPMI1640 medium (GIBCO) containing 10% FBS was added to 96-well plate.
as §3, §2

[4] = tested on: K-Ras mutated colorectal cancer cell line (Lovo cell line); assay: Cell proliferation assay (Cell Counting Kit-8), Lovo cell line; assay type: cell-based; details: FIG. 4, FIG. 5
Method: To examine the cell proliferation inhibition effect depending on the amount of a bispecific anti-c-Met/anti-EGFR antibody, the experiment was carried out by varying the amount of the treated bispecific anti-c-Met/anti-EGFR antibody with fixing the amount of dasatini as 30 nM.
This experiment was conducted referring to the experiment of the cell proliferation test depending on the amount of the antibody as described above, except the amount of the treated antibody and the c-Src inhibitor.

[5] = tested on: EGFR T790M mutated non-small cell lung cancer cell line (H820 cell line); assay: Cell proliferation assay (Cell Counting Kit-8), H820 cell line; assay type: cell-based
Description: The H820 cell line was obtained from ATCC. The H820 cells comprise EGFR T790M mutation.

[6] = 5 μg/ml alone, HGF and EGF 100 ng/ml, 72 hours

Molecule: COc1cc(Nc2c(C#N)cnc3cc(OCCCN4CCN(C)CC4)c(OC)cc23)c(Cl)cc1Cl [bosutinib, 4-[(2,4-dichloro-5-methoxyphenyl)amino]-6-methoxy-7-[3-(4-methylpiperazin-1-yl)propoxy]quinoline-3-carbonitrile]
- cell proliferation, co-treatment with bispecific antibody compared to c-Src inhibitor alone [1]: significantly synergistic therapeutic effect
- dose dependence of the synergistic effect by co-treatment with bispecific antibody [1]: generally dose-dependent for the c-Src inhibitor

Molecule: Cc1nc(Nc2ncc(C(=O)Nc3c(C)cccc3Cl)s2)cc(N2CCN(CCO)CC2)n1 [dasatinib, N-(2-chloro-6-methylphenyl)-2-[[6-[4-(2-hydroxyethyl)-1-piperazinyl]-2-methyl-4-pyrimidinyl]amino]-5-thiazole carboxamide monohydrate, reference compound]
- cell proliferation, co-treatment with ME22S compared to c-Src inhibitor alone ([2]; 72 hours, FIG. 6, FIG. 7): more synergistic therapeutic effect
- cell proliferation, co-treatment with ME22S compared to c-Src inhibitor alone ([3]; 72 hours, FIG. 14, FIG. 15): significantly synergistic therapeutic effect

Molecule: CN1CCN(CCOc2cc(OC3CCOCC3)c3c(Nc4c(Cl)ccc5c4OCO5)ncnc3c2)CC1 [saracatinib, 4-Quinazolinamine, N-(5-Chloro-1,3-benzodioxol-4-yl)-7-[2-(4-methyl-1-piperazinyl)ethoxy]-5-[(tetrahydro-2H-pyran-4-yl)oxy]-4-quinazolinamine]
- cell proliferation, co-treatment with ME22S compared to c-Src inhibitor alone ([2]; 72 hours, FIG. 6, FIG. 7): more synergistic therapeutic effect
- dose dependence of the synergistic effect by co-treatment with ME22S ([2]; c-Src inhibitor concentration varied, ME22S fixed at 5 μg/ml, FIG. 6, FIG. 7): generally dose-dependent for the c-Src inhibitor
- cell proliferation, co-treatment with bispecific antibody compared to c-Src inhibitor alone [1]: significantly synergistic therapeutic effect
- dose dependence of the synergistic effect by co-treatment with bispecific antibody [1]: generally dose-dependent for the c-Src inhibitor
- dose dependence of the synergistic effect by co-treatment with ME22S ([3]; c-Src inhibitor concentration varied, ME22S 5 μg/ml, FIG. 14, FIG. 15): generally dose-dependent for the c-Src inhibitor
- cell proliferation, co-treatment with ME22S compared to c-Src inhibitor alone ([3]; 72 hours, FIG. 14, FIG. 15): significantly synergistic therapeutic effect

B1: ME-19: bispecific anti-c-Met/anti-EGFR antibody: anti-EGFR DARPin fused to C-terminus of L3-1Y heavy chain through (G4S)2 linker (antibody)
heavy: EVQLVESGGGLVQPGGSLRLSCAASGFTFTDYYMSWVRQAPGKGLEWLGFIRNKANGYTTEYSASVKGRFTISRDNSKNTLYLQMNSLRAEDTAVYYCARDNWFAYWGQGTLVTVSSASTKGPSVFPLAPCSRSTSESTAALGCLVKDYFPEPVTVSWNSGALTSGVHTFPAVLQSSGLYSLSSVVTVPSSNFGTQTYTCNVDHKPSNTKVDKTVERKCCVECPPCPAPPVAGPSVFLFPPKPKDTLMISRTPEVTCVVVDVSHEDPEVQFNWYVDGVEVHNAKTKPREEQFNSTFRVVSVLTVVHQDWLNGKEYKCKVSNKGLPAPIEKTISKTKGQPREPQVYTLPPSREEMTKNQVSLTCLVKGFYPSDIAVEWESNGQPENNYKTTPPMLDSDGSFFLYSKLTVDKSRWQQGNVFSCSVMHEALHNHYTQKSLSLSPGKGGGGSGGGGSDLGKKLLEAARAGQDDEVRILMANGADVNADDTWGWTPLHLAAYQGHLEIVEVLLKNGADVNAYDYIGWTPLHLAADGHLEIVEVLLKNGADVNASDYIGDTPLHLAAHNGHLEIVEVLLKHGADVNAQDKFGKTAFDISIDNGNEDLAEILQ
light: DIQMTQSPSSLSASVGDRVTITCKSSQSLLASGNQNNYLAWYQQKPGKAPKMLIIWASTRVSGVPSRFSGSGSGTDFTLTISSLQPEDFATYYCQQSYSRPYTFGQGTKVEIKRTVAAPSVFIFPPSDEQLKSGTASVVCLLNNFYPREAKVQWKVDNALQSGNSQESVTEQDSKDSTYSLSSTLTLSKADYEKHKVYACEVTHQGLSSPVTKSFNRGEC
- cell proliferation, co-treatment with dasatinib compared to bispecific antibody alone ([4]; ME-19 10, 1, 0.1, 0.01 μg/ml or ME22S 1, 0.1, 0.01 μg/ml + 30 nM dasatinib, 72 hours): more synergistic therapeutic effect
- dose dependence of the synergistic effect by co-treatment with dasatinib ([4]; antibody concentration varied, dasatinib fixed at 30 nM): dose-dependent for the antibody
- cell proliferation, bispecific antibody + dasatinib compared to co-treatment of dasatinib, L3-1Y and erbitux ([2]; 5 μg/ml antibody + 30 nM dasatinib, 72 hours): considerable inhibition effect on cancer cell proliferation
- cell proliferation, combination with dasatinib compared to the drugs alone ([2]; 5 μg/ml antibody + 30 nM dasatinib, HGF and EGF 100 ng/ml, 72 hours, FIG. 2, FIG. 3): considerable inhibitory effect on the cell proliferation
- cell proliferation, co-treatment with c-Src inhibitor compared to either alone ([5]; ME19 0.01, 0.1, 1 or 10 μg/ml + dasatinib 30 nM, 72 hours, FIG. 10): more considerable inhibition effect on the cell proliferation
- dose dependence of the inhibition effect on cell proliferation ([5]; ME19 concentration varied, dasatinib 30 nM, FIG. 10): generally dose-dependent for the bispecific anti-c-Met/anti-EGFR antibody
- cell proliferation, bispecific antibody + dasatinib compared to co-treatment of dasatinib, L3-1Y and erbitux ([3]; 5 μg/ml ME19 + 5 nM dasatinib, 72 hours, FIG. 13): considerable inhibition effect on cancer cell proliferation
- cell proliferation, co-treatment with dasatinib compared to each of the drugs ([3]; 5 μg/ml ME19 + 5 nM dasatinib, HGF and EGF 100 ng/ml, 72 hours, FIG. 13): more considerable cell proliferation inhibition effect

B2: L3-1Y: anti-c-Met antibody: huAbF46-H4-A1 variable regions, human IgG2 hinge and constant region, human kappa light chain (antibody)
heavy: EVQLVESGGGLVQPGGSLRLSCAASGFTFTDYYMSWVRQAPGKGLEWLGFIRNKANGYTTEYSASVKGRFTISRDNSKNTLYLQMNSLRAEDTAVYYCARDNWFAYWGQGTLVTVSSASTKGPSVFPLAPCSRSTSESTAALGCLVKDYFPEPVTVSWNSGALTSGVHTFPAVLQSSGLYSLSSVVTVPSSNFGTQTYTCNVDHKPSNTKVDKTVERKCCVECPPCPAPPVAGPSVFLFPPKPKDTLMISRTPEVTCVVVDVSHEDPEVQFNWYVDGVEVHNAKTKPREEQFNSTFRVVSVLTVVHQDWLNGKEYKCKVSNKGLPAPIEKTISKTKGQPREPQVYTLPPSREEMTKNQVSLTCLVKGFYPSDIAVEWESNGQPENNYKTTPPMLDSDGSFFLYSKLTVDKSRWQQGNVFSCSVMHEALHNHYTQKSLSLSPGK
light: DIQMTQSPSSLSASVGDRVTITCKSSQSLLASGNQNNYLAWYQQKPGKAPKMLIIWASTRVSGVPSRFSGSGSGTDFTLTISSLQPEDFATYYCQQSYSRPYTFGQGTKVEIKRTVAAPSVFIFPPSDEQLKSGTASVVCLLNNFYPREAKVQWKVDNALQSGNSQESVTEQDSKDSTYSLSSTLTLSKADYEKHKVYACEVTHQGLSSPVTKSFNRGEC
- cell proliferation, L3-1Y in combination with erbitux ([2]; 5 μg/ml L3-1Y + 5 μg/ml erbitux, HGF and EGF 100 ng/ml, 72 hours): increased cell proliferation
- cell proliferation, antibody alone [2, 6]: increased cell proliferation
- cell proliferation, L3-1Y in combination with erbitux ([5]; 5 μg/ml L3-1Y + 5 μg/ml erbitux, 72 hours): increased cell proliferation
- cell proliferation, antibody alone [5, 6]: increased cell proliferation
